Assay results as given in patent publication US20210101970A1 (Pfizer, published 2021).
Where a chain is given by its changes, count along the chain named.

B1: mouse 11G2 (antibody, V domains shown)
VH: EVKLVESGGGLVQPGGSLRLSCATSGFTFTDFYMSWVRQPPGRALEWLGFIRNKANGYTTEYSASVKGRFTISRDNSQSILYLQMNTLRAGDSATYYCVRVYGSTLHYWGQGTILTVSS
VL: DVVVTQSPDSLAVSLGQRATISCRASESVEYHGTSLMHWYQQKPGQPPKLLIYAASNVESGVPARFSGSGSGTDFSLNIHPVEEGDIAMYFCQQSRKVPWTFGGGTKLEIK
notes: mouse hybridoma mAb; also called 11G2 (hybridoma)
B2: chimeric 5H7 (antibody, human IgG1, kappa, V domains shown)
VH: B1 VH with G16D
VL: DVVVTQSPDSLAVSLGQRATISCRASESVEYHGTSLMHWYQQKPGQPPKLLIYAASNVESGVPARFSGSGSGTDFSLNIHPVEEGDVSMFFCQQSRKVPWTFGGGTKLEIKR
notes: mouse V regions on human IgG1/kappa; fucosylated; also called 5H7 (chimeric)
B3: mouse 5H7 (antibody, V domains shown)
VH: B1 VH with G16D
VL: B1 VL with I87V, A88S, Y90F
notes: mouse hybridoma mAb; also called 5H7 (hybridoma)
B4: Humanized 11G2 154/157 (antibody, human IgG1, V domains shown)
VH: EVQLVESGGGLVQPGGSLRLSCATSGFTFTDFYMSWVRQAPGKGLEWVGFIRNKANGYTTEYSASVKGRFTISRDNAKSSLYLQMNSLRAEDTAVYYCVRVYGSTLHYWGQGTLVTVSS
VL: DIQMTQSPSSLSASVGDRVTITCRASESVEYHGTSLMHWYQQKPGKAPKLLIYAASNVESGVPSRFSGSGSGTDFTLTISSLQPEDFATYYCQQSRKVPWTFGQGTKVEIK
notes: also called h11G2 VH (XC157)/VL (XC154)
B5: mouse 41A10 (antibody, V domains shown)
VH: EVQLVESGGDLVKPGGSLKLSCAASGFTFRSYGMSWVRQTPDKRLEWVATISSGGTYTFYPDILKGRITISRDNAKNTLYLQMSNLKSEDTAMYYCARRGEDYRGALEHWGQGTSVTVSS
VL: QIVLTQSPAVMSASPGEKVTMTCSASSSVNYIHWYQQKSGTSPKRWIYETSRLASGVPVRFSGSGSGTSYSLTISTMEAEDAATYYCQQWSSNPLTFGAGTKLELK
notes: mouse hybridoma mAb; also called 41A10 (hybridoma)
B6: Chimeric 41A10 (antibody, human IgG1, kappa, V domains shown)
VH: B5 VH
VL: QIVLTQSPAVMSASPGEKVTMTCSASSSVNYIHWYQQKSGTSPKRWIYETSRLASGVPVRFSGSGSGTSYSLTISTMEAEDAATYYCQQWSSNPLTFGAGTKLELKR
notes: mouse V regions on human IgG1/kappa; fucosylated; also called 41A10 (chimeric)

What was measured:
human CXCR5 [1] = target: T1, human CXCR5 (human, UniProt P32302 1-372); assay: cell-based or functional assay
T1 sequence: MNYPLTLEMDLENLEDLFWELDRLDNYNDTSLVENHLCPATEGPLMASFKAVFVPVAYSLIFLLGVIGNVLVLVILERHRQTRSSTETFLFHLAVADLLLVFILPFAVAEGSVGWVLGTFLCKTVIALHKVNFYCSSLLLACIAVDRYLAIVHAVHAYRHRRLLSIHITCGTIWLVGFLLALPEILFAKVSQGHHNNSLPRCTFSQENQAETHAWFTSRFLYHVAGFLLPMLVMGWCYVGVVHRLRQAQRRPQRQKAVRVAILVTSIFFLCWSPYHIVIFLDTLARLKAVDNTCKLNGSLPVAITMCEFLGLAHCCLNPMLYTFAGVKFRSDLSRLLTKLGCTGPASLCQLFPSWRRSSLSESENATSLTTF

human CXCR5 [2] = target: T1, human CXCR5; assay: flow cytometry on Raji cells, gMFI titration
Procedure: The apparent affinity of antibody binding to Raji cells was calculated as the EC₅₀ of equilibrium binding titration curves in which the geometric mean fluorescence intensity (gMFI) of the antigen binding population was quantified by flow cytometry and the results are shown in Table 2.

human CXCR5 [3] = target: T1, human CXCR5; assay: flow cytometry on Raji cells, fucosylated chimeric antibody
Procedure: The fucosylated chimeric antibodies were then purified using protein A columns. The apparent affinity (cell binding EC50s) of chimeric antibody binding to Raji cells was determined by flow cytometry using a FACSVerse Analyzer (BD Bioscience, Franklin Lakes, N.J.) and are shown in Table 3.

cynomolgus monkey CXCR5 [4] = target: T2, cynomolgus monkey CXCR5 (cynomolgus monkey, UniProt P32302 1-372 (human entry)); assay: flow cytometry on cynoCXCR5-300.19 cells, fucosylated chimeric antibody
T2 construct: also called cynoCXCR5; NHP CXCR5
T2 chain: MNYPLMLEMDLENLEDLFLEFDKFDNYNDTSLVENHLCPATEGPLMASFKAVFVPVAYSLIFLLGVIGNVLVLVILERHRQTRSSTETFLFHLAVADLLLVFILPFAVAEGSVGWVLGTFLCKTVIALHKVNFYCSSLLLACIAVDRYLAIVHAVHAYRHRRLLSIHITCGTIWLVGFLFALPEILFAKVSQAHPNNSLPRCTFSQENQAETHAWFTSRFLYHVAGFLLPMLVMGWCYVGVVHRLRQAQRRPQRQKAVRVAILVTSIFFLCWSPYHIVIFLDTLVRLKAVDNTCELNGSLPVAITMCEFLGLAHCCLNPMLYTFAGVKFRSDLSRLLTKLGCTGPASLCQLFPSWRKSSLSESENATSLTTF

CXCR1 = target: T3, CXCR1 (human, UniProt P25024 1-350); assay: flow cytometry (GMFI) on fixed CXCR1 cells, chimeric antibody, goat anti-human PE
T3 construct: whole, on cells
T3 sequence (looked up): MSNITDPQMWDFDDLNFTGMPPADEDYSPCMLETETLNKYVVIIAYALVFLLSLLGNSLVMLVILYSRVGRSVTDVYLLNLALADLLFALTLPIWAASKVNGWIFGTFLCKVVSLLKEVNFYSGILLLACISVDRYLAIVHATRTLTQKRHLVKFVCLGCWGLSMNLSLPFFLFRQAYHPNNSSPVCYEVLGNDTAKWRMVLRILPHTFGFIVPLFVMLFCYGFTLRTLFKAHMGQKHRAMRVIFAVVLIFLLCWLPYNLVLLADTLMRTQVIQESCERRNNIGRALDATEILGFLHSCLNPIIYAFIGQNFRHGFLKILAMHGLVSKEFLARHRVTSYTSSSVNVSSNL
Procedure: (§1) To determine the specificity of the antibodies for CXCR5, the binding of the antibodies to cells expressing other […] was assessed. Briefly, FlowCellect chemokine receptor cell lines expressing CXCR1, CXCR2, or CXCR3 (EMD Millipore, Billerica, Mass.), and Jurkats (ATCC, Manassas, Va.), which express CXCR4, were stained with 5 μg/ml or 10 μg/ml of each anti-CXCR5 chimeric antibody. The cells were then incubated with goat anti-human conjugated with PE (Southern Biotech, Birmingham, Ala.) prior to analysis by flow cytometry using a FACSVerse Analyzer (BD Biosciences, Franklin Lakes, N.J.).

CXCR2 = target: T4, CXCR2 (human, UniProt P25025 1-360); assay: flow cytometry (GMFI) on fixed CXCR2 cells, chimeric antibody, goat anti-human PE
T4 construct: whole, on cells
T4 sequence (looked up): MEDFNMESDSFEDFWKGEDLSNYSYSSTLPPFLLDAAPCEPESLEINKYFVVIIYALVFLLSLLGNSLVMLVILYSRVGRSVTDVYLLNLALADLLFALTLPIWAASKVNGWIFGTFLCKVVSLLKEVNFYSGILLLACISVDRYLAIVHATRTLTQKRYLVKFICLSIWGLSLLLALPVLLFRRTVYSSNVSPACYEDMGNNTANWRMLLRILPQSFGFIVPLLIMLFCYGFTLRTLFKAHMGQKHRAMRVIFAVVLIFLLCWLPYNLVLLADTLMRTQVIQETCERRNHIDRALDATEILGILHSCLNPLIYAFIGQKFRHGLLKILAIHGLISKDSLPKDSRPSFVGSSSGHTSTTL
Procedure: as §1

CXCR3 = target: T5, CXCR3 (human, UniProt P49682 1-368); assay: flow cytometry (GMFI) on fixed CXCR3 cells, chimeric antibody, goat anti-human PE
T5 construct: whole, on cells
T5 sequence (looked up): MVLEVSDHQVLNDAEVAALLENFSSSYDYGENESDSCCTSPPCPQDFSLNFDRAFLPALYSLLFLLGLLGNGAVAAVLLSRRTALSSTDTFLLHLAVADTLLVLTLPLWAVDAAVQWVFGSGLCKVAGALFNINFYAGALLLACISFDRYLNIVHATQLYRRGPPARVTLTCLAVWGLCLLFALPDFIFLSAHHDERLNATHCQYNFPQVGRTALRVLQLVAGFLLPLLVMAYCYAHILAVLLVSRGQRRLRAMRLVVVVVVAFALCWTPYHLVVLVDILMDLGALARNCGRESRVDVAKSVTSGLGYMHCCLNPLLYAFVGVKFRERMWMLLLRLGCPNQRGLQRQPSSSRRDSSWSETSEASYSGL
Procedure: as §1

CXCR4 = target: T6, CXCR4 (human, UniProt P61073 1-352); assay: flow cytometry (GMFI) on Jurkat cells, which express CXCR4; chimeric antibody, goat anti-human PE
T6 construct: whole, on cells
Procedure: as §1

human CXCR5 [5] = target: T1, human CXCR5; assay: cell-based or functional assay; remark: listed apart in the source
cynomolgus monkey CXCR5 [6] = target: T2, cynomolgus monkey CXCR5; assay: cell-based or functional assay
human CXCR5 [7] = target: T1, human CXCR5; assay: flow cytometry, human PBMC B cells
Procedure: (§2) The apparent affinity for cell surface CXCR5 of chimeric and humanized CXCR5 fucosylated and afucosylated antibodies was assessed. More specifically, to determine the apparent affinity of chimeric and humanized CXCR5 antibodies to CXCR5-expressing cells, cell binding experiments were performed on human and cynomolgus monkey peripheral blood mononuclear cells (PBMCs) and human tonsillar mononuclear cells (TMCs). The apparent affinity of CXCR5 mab binding to CXCR5+ cells (B cells, bona fide Tfh cells, and circulating Tfh-like cells) was calculated as the EC50 of equilibrium binding titration curves in which the geometric mean fluorescence intensity (gMFI) of the antigen binding population was quantified by flow cytometry.
(§3) Following isolation, PBMCs were plated at a density of 1.0×10⁵ cells per well and CD4+ TMCs were plated at a density of 2.0×10⁵ cells per well in isolation buffer (PBS containing 1% FBS and 1 mM EDTA) in 96 well U-bottom plates. The plates were then centrifuged at 1500 rpm for 5 minutes at room temperature. PBMCs and CD4+ TMCs were resuspended in Fluorescence-activated cell sorting (FACS) buffer (PBS containing 1% FBS) containing human crystallized fragment Fc block (2 μL per well; Biolegend) and 4-fold serial dilutions of the antibodies (11-point dilution series, beginning at 5000 ng/mL for PBMCs and 312.5 ng/mL for CD4+ TMCs) and incubated on ice for 2 hours. PBMCs and CD4+ TMCs were then washed with FACS buffer 3 times and resuspended in 50-100 μL of FACs buffer containing fluorescent-conjugated antibodies for staining lymphocyte subsets and a fluorescent-conjugated secondary antibody against human Ig to detect CXCR5 monoclonal antibodies (mAbs). After incubation for 30 minutes at 4° C., PBMCs and CD4+ TMCs were washed with FACS buffer 2 times and resuspended in 125 μL of 0.5% paraformaldehyde (PFA) in PBS. Plates were stored at 4° C. until analysis by flow cytometry (BD LSRFortessa™ Cell Analyzer, BD Biosciences, Franklin Lakes, N.J.).
(§4) The cell binding titration curves were generated by plotting the gMFI of the antigen binding population against the log of CXCR5 antibody concentration. EC₅₀ values were determined using GraphPad Prism® (version 6.0, GraphPad Software, Inc, San Diego, Calif.) nonlinear-regression curve fits and a sigmoidal log of agonist dose-response model, according to the following equation

human CXCR5 [8] = target: T1, human CXCR5; assay: flow cytometry, human tonsil Tfh cells
Procedure: Following centrifugation, red blood cell lysis was performed on the pellet using an ammonium chloride lysis buffer. Platelets were removed using a low speed centrifugation (200×g) for 10 minutes in Phosphate-Buffered Saline (PBS)/2% FBS/2 mM Ethylenediaminetetraacetic acid (EDTA). CD4+ T cells were purified out of the TMC mixture using an EasySep™ Human CD4+ T Cell Enrichment Kit, according to the manufacturer's instructions ([…] Technologies, Vancouver, BC, Canada).
as §3, §4

cynomolgus monkey CXCR5 [9] = target: T2, cynomolgus monkey CXCR5; assay: flow cytometry, cynomolgus PBMC B cells
Procedure: as §2, §3, §4

T6 sequence (P61073 whole entry): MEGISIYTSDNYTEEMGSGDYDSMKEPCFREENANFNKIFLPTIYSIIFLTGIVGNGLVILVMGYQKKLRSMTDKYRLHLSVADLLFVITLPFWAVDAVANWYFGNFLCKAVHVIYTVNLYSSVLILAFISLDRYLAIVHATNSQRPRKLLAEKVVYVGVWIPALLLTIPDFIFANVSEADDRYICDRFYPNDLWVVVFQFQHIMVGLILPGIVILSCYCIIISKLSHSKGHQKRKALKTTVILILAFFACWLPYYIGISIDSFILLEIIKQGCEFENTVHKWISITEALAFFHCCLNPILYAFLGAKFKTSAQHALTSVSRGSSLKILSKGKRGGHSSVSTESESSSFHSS

| Binder | Ca2+ flux IC50 (human CXCR5 [1]) [nM] | EC50 (human CXCR5 [2]) [nM] | EC50 (human CXCR5 [3]) [nM] | EC50 (cynomolgus monkey CXCR5 [4]) [nM] | binding result (CXCR1) | binding result (CXCR2) | binding result (CXCR3) | ADCC Activity Average EC50, Human B Cells (human CXCR5 [5]) [nM] | EC50 (human CXCR5 [7]) [nM] | EC50 (cynomolgus monkey CXCR5 [9]) [nM] | also measured |
| --- | --- | --- | --- | --- | --- | --- | --- | --- | --- | --- | --- |
| B1 | 5.93 | 0.968 |  |  |  |  |  |  |  |  |  |
| B2 |  |  | 0.0421 | 0.0603 | no binding (tested: 5 or 10 µg/ml (not on the sheet)) | no binding (tested: 5 or 10 µg/ml (not on the sheet)) | no binding (tested: 5 or 10 µg/ml (not on the sheet)) |  |  |  | binding result (CXCR4): no binding (tested: 5 or 10 µg/ml (not on the sheet)) |
| B3 | 5.55 | 1.01 |  |  |  |  |  |  |  |  |  |
| B4 |  |  |  |  |  |  |  | 0.517 | 0.0191 | 0.00865 | ADCC Activity Average EC50, NHP B Cells (cynomolgus monkey CXCR5 [6]): 0.054 nM; EC50 (human CXCR5 [8]): 0.00724 nM |
| B5 | 14.7 | 0.805 |  |  |  |  |  |  |  |  |  |
| B6 |  |  | 0.39 | 0.831 | no binding (tested: 5 or 10 µg/ml (not on the sheet)) | no binding (tested: 5 or 10 µg/ml (not on the sheet)) | no binding (tested: 5 or 10 µg/ml (not on the sheet)) | 11.7 | 0.161 | 0.549 |  |
